Laboratory results from patent publication US20160368993A1 (University of California, published 2016).

Target: T1, αvβ6 integrin (R&D Systems), immobilized (UniProt P06756 31-992; P18564 22-707)
T1 construct: Bought protein captured on the plate by the anti-αv antibody P2W7; also called immobilized αvβ6 integrin
Assay: competitive binding ELISA against biotinylated fibronectin on immobilized αvβ6 integrin
Description: Separate competitive binding ELISAs were used to determine the binding affinity of the anti-αᵥβ₆ diabody and Cys-diabody relative to biotinylated fibronectin, a known natural ligand of the αᵥβ₆ integrin. Biotinylation of fibronectin was performed according to the manufacturer's instructions (Amersham Biosciences). The P2W7 antibody (anti-αᵥ, 5 μg/mL, Abcam) was plated into wells (50 μL/well) of a 96-well plate (Maxisorp®, Nunc). The plate was incubated at 37° C. for 1 h then washed with PBS (3×). After washing, the wells were blocked with blocking buffer (PBS, 5% bovine serum albumin (BSA), 1% Tween 20) and the plate was incubated at room temperature for 3 hrs, followed by washing with PBS (3×). The αᵥβ₆ integrin (3 μg/mL, R&D Systems) in conjugate buffer (20 mM Tris, 1 mM MnCl2, 150 mM NaCl, 0.1% Tween, 1% BSA) was added to the wells (50 μL/well). The plate was incubated at room temperature for 1 h and washed with wash buffer (20 mM Tris, 1 mM MnCl2, 150 mM NaCl, 0.1% Tween, 3×). […] Extravidin HRP conjugate was detected using 3,3′,5,5′-tetramethylbenzidine (TMB) substrate (50 μL/well) for 10-15 mins at room temperature. The reaction was terminated by the addition of 1N sulfuric acid (50 μL/well) and the absorbance of each well was measured in a Multiscan Ascent plate reader (Thermo) at 450 nm. […]

T1 sequence (P06756 31-992, chain 1 of 2): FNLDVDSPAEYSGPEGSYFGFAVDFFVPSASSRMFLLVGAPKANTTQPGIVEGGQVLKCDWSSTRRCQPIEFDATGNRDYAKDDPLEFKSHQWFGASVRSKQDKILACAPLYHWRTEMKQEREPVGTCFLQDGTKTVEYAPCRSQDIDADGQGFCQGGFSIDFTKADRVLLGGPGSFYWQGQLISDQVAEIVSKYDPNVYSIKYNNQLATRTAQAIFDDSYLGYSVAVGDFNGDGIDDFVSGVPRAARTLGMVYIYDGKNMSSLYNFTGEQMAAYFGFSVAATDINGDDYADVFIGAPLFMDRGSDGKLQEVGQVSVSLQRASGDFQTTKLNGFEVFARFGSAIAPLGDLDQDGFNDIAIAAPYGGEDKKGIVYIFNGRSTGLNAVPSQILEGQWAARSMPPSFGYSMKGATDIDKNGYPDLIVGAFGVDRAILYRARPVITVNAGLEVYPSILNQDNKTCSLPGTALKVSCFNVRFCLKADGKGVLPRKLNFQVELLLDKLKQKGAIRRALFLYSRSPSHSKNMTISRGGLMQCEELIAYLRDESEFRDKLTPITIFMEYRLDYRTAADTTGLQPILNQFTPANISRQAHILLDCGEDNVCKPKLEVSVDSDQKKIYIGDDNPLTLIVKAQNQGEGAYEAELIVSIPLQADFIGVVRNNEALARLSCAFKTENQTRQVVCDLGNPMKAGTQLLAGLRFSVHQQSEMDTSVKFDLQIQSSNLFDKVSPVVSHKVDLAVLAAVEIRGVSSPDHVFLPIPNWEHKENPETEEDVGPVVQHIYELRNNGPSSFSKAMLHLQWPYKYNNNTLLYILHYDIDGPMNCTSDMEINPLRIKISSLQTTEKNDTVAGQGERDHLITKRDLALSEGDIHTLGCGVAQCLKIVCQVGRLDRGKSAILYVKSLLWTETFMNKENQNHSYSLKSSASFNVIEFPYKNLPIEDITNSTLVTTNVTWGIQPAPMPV
T1 sequence (P18564 22-707, chain 2 of 2): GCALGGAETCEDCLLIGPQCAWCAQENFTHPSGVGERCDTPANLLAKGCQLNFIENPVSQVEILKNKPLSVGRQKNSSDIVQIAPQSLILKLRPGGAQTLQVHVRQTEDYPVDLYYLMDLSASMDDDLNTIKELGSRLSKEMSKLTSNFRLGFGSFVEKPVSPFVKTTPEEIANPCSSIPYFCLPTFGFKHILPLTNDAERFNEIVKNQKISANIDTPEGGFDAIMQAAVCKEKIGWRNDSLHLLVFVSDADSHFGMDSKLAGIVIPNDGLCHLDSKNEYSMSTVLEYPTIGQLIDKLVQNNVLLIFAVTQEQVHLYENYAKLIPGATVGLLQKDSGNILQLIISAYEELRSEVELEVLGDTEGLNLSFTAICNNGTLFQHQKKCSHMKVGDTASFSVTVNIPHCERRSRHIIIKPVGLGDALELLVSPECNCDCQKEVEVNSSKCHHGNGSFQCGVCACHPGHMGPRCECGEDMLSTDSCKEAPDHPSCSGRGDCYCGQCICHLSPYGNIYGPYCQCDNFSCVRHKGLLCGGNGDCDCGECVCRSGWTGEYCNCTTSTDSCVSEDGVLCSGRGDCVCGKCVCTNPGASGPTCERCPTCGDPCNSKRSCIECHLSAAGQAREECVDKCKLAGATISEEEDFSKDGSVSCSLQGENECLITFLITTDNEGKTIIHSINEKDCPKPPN

Binder | IC50
anti-αvβ6 diabody (other, Non-covalent dimer of two VH-G2S-VL-His6 chains (diabody), secreted from 293-F cells; also called B6DiaR-G2S; parental anti-αvβ6 diabody) scFv: EVQLVESGGGLVQPGGSLRLSCAASGFTFSRYVMSWVRQAPGKGLEWVASISSGGRMYYPDTVKGRFTISRDNAKNSLYLQMNSLRAEDTAVYYCARGSIYDGYYVFPYWGQGTLVTVSSGGSEIVLTQSPATLSLSPGERATLSCSASSSVSSSYLYWYQQKPGQAPRLLIYSTSNLASGIPARFSGSGSGTDFTLTISSLEPEDFAVYYCHQWSTYPPTFGGGTKVEIKHHHHHH | 0.8 nM
anti-αvβ6 Cys-diabody (other, C-terminal engineered cysteines of the two chains form an interchain disulfide, Covalent dimer; also called disulfide-stabilized anti-αvβ6 Cys-diabody; B6DiaR-G2S-Cys) scFv: EVQLVESGGGLVQPGGSLRLSCAASGFTFSRYVMSWVRQAPGKGLEWVASISSGGRMYYPDTVKGRFTISRDNAKNSLYLQMNSLRAEDTAVYYCARGSIYDGYYVFPYWGQGTLVTVSSGGSEIVLTQSPATLSLSPGERATLSCSASSSVSSSYLYWYQQKPGQAPRLLIYSTSNLASGIPARFSGSGSGTDFTLTISSLEPEDFAVYYCHQWSTYPPTFGGGTKVEIKHHHHHHGGC | 0.6 nM
